Test results reported in US20150239980A1 (NEOTOPE BOSCIENCES, published 2015).

Assays:
[1] = target: T1, human MCAM domain 1 (amino acids 19-129), Fc-tagged (human, UniProt P43121 19-129); assay: ForteBio domain mapping as in Example 8
T1 construct: also called MCAM Fc domain 1
T1 sequence: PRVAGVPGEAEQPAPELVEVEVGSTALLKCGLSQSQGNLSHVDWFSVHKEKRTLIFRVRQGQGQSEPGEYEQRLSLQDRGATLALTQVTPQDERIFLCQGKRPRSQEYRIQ

[2] = target: T2, human MCAM domain 2 (amino acids 139-242), Fc-tagged (human, UniProt P43121 139-242); assay: ForteBio domain mapping as in Example 8
T2 sequence: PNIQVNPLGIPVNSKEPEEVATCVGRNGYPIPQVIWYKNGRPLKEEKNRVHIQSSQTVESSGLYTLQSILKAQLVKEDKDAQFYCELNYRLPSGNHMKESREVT

[3] = target: T3, human MCAM domain 3 (amino acids 244-321), Fc-tagged (human, UniProt P43121 244-321); assay: ForteBio domain mapping as in Example 8
T3 construct: also called domain 3 of the human MCAM protein
T3 sequence: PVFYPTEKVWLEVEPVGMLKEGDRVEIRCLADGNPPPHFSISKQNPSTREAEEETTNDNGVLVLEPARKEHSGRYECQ

[4] = target: T4, recombinant hMCAM-His (human, UniProt P43121 24-559); assay: ForteBio Octet Red, hMCAM-His analyte; Expt. #2; vs rodent 1749
T4 construct: not shown: His tag
T4 chain: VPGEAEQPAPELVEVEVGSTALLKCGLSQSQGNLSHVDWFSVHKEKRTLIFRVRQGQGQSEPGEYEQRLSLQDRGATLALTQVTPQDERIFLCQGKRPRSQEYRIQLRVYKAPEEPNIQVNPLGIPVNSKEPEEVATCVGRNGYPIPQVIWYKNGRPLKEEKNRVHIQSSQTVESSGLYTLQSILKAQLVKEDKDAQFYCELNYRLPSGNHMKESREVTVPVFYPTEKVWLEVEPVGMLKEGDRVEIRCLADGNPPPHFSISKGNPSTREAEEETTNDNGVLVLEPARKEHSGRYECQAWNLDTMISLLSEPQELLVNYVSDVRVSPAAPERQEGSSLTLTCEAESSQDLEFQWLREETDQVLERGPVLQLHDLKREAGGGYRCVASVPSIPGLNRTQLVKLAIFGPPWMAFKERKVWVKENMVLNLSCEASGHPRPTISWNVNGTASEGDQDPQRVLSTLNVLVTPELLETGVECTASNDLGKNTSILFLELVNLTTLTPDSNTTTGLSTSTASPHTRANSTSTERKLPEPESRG
Experimental: The affinities were measured using the ForteBio Octet Red. Anti-human Fc sensors were used to capture the humanized antibodies, and several concentrations of hMCAMHis analyte were used to determine the affinity using a 1:1 fitting model.

[5] = target: T5, human MCAM (melanoma cell adhesion molecule) expressed on transfected CHO cells (human, UniProt P43121 24-646); assay: laminin/FACS on hMCAM CHO cells, competitor laminin 411; Expt#1; vs rodent 1749
T5 construct: also called hMCAM; CD146
T5 chain: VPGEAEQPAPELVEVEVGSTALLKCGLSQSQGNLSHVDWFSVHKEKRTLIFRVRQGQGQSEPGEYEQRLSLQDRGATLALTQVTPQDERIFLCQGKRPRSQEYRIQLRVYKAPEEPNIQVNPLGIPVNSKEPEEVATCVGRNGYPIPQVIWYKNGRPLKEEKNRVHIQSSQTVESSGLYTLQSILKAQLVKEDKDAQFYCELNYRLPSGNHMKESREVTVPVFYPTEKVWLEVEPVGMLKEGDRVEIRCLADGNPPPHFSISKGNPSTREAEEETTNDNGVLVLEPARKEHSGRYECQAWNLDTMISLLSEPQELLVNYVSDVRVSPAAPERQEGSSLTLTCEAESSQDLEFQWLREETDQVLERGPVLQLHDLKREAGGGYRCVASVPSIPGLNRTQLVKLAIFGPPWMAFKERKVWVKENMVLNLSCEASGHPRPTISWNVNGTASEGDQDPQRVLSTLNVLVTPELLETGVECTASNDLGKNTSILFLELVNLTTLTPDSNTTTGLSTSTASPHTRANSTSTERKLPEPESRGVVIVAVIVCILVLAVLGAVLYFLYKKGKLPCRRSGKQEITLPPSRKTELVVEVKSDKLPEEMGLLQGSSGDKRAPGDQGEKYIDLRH
In short: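 Bound laminin is quantified by flow cytometry using an AF650-conjugated anti-laminin detection antibody. Cells are washed before detection, following 30-45 minutes of incubation.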

[6] = target: T4, recombinant hMCAM-His; assay: competitive ELISA on hMCAM-His, competitor biotinylated rodent or chimeric 1749; vs rodent 1749
[7] = target: T4, recombinant hMCAM-His; assay: competitive ELISA on hMCAM-His, competitor biotinylated rodent or chimeric 1749; Expt. #2; vs rodent 1749
In short: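 Plates coated with recombinant hMCAM-His and casein-blocked; biotinylated rodent or chimeric antibody at subsaturating level competed by 3× serial concentrations of unlabeled humanized, rodent or chimeric antibody. Bound biotinylated antibody detected with streptavidin-HRP/TMB at OD450; competitor IC50 fitted.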

B1: mouse anti-human MCAM monoclonal antibody clone 1749.1.3 (antibody, V domains shown)
VH: DVKLVESGGDLVKPGGSLKLSCAASGFTFSSYIMSWVRQTPEKRLEWVATISSGGSSTYYPDSVKGRFTISRDNAKNTLYLQMSSLKSEDTAMYYCTRDDDYDVKVFAYWGQGTLVTVSA
VL: DIVMSQSPSSLAVSAGEKVTMNCKSSRSLLNSRIRKNYLAWYQQKPGQSPKLLIYWASTRESGVPDRFTGSGSGTDFTLTISSVQAEDLAVYYCKQSYNLLTFGAGTKLELK
notes: mouse hybridoma antibody; also called rodent 1749; murine 1749.1.3 anti-MCAM antibody
- binding result [1]: no binding
- binding result [2]: no binding
- binding result [3]: binds
- fold over rodent (Forte affinity) [4]: 1 fold
- fold over rodent (blocking, laminin/FACS) [5]: 1 fold
- fold over rodent (competitive ELISA) [6]: 1 fold
- fold over rodent (competitive ELISA) [7]: 1 fold
